Test results: PMC12849132

molecular target: T1, PhaR (Ralstonia eutropha H16 (Cupriavidus necator)) (UniProt Q0KBP6); assay: EMSA; conditions: EMSA: 0-250 ng PhaR, ~75 ng FAM-DNA, 5 uL master mix (1.75 uL 10x TBE, 0.25 uL 10 mg/mL herring sperm DNA, 3 uL DNA), 30 min at 37 C, 7.5% native PAGE
T1 sequence: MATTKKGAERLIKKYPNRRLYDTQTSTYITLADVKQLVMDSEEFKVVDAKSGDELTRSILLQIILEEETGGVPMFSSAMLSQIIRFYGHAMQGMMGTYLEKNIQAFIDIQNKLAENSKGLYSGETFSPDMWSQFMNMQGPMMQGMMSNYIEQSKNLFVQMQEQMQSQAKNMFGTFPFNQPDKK

Sequence	binding
ATCGAATTCACGATGCACTTTTATTGTCCTGTTTTAAAGACTTTTTGGGTATATACCTAGGGATCAAATTAGAGGAAACCCTCTAGGATTCGCACTCGGATGCTGCGCTGCAGGATTGGTGGCGCTGTCAATCCGGAAGCCAAACCGAAGCGGATTCACGTTGCAATCTGTTGCGCGAATCCGTTCGATCAATCCACAG (double strand) [F2 (BS2, phaP3)]	binds more weakly
ATCGAATTCTGTATTCAGAGATCCGTTCCAAGCGTCTGGGGTGAAGTGCGCCCTACACATGTCATGCACTGCAACATTTCTGCGTAAGCACATGTAAATTTAGAGACGTACGATGCACTTTTATTGTCCTGTTTTAAAGACTTTTTGGGTATATACCTAGGGATCAAATTAGAGGAAACCCTCTAGGATTCGCACTCGGATGCT (double strand) [F1 (BS1, phaP3)]	binds
ATCGAATTCTGTATTCAGAGATCCGTTCCAAGCGTCTGGGGTGAAGTGCGCCCTACACATGTCATGCACTGCAACATTTCTGCGTAAGCACATGTAAATTTAGAGACGTACGATGCACTTTTATTGTCCTGTTTTAAAGACTTTTTGGGTATATACCTAGGGATCAAATTAGAGGAAACCCTCTAGGATTCGCACTCGGATGCTGCGCTGCAGGATTGGTGGCGCTGTCAATCCGGAAGCCAAACCGAAGCGGATTCACGTTGCAATCTGTTGCGCGAATCCGTTCGATCAATCCACAG (double strand) [F4 (BS1+BS2, phaP3)]	binds
GGCGCTGTCAATCCGGAAGCCAAACCGAAGCGGATTCACGTTGCAATCTGTTGCGCGAATCCGTTCGATCAATCCACAGGAGATTTTGCATGTCCCCTTTTATGCCCGAGCAATTTGCTGCAGTGCAAAAGTCCAGTCTGAACCAACTGTTCGCGCTGACGAACATGGCTTTTGACGGCGGA (double strand) [F3 (BS3, phaP3)]	binds more weakly
